One assay concerns ERK1/2. The assay can be described thus: phospho-ERK1/2 immunoblot (MAPK activity) in HC11 cells. It is filed as cell-based, mouse. From the text: The MAPK and PI3K pathways are major signaling cascades downstream of activated ErbB receptors (Olayioye et al., 2000). Antisera specific for the active, phosphorylated forms of ERK1/2 and PKB, the major kinases on the respective pathways, were used to probe for their activity. 50 micrograms of WCL were immunoblotted essentially as described above with the exception that a phospho-ERK1/2 antibody (commercially available, New England Biolabs) or a phosphoPKB antibody was used. Membranes were stripped and reprobed for ERK1/2 (anti-p44/42 ERK, New England Biolabs).
Briefly, conditioned media (CM) from Wnt-HC11 cells prepared as described in Example 1 was tested for its effect on ErbB1 and MAPK activity, essentially as described above. Treatment of C-HC11 cells for 10 min with Wnt1- and Wnt5a-CM stimulated phospho-ERK1/2 levels 5-6-fold, whereas CM from C-HC11 cells had no effect.
To rule out the potential involvement of ErbB1 ligands in mediating the effects of Wnt-containing CM, we used secreted Frizzled-related protein-1 (sFRP-1), which binds Wnt preventing it from binding Fz (Uren et al., 2000). […]
The metalloproteinase inhibitors were next tested in the presence of Wnt-containing CM. […] Phospho-ERK1/2 levels were determined as above. […]
In general terms: A western blot detects proteins with antibodies after separation by electrophoresis.

The target in the next assay is T1, ErbB1 (Mus musculus, UniProt Q01279).
T1 construct: ErbB1 was immunoprecipitated from 500 micrograms WCL and immunoblotted with a phosphotyrosine specific antibody; endogenous in cells; host or cells: HC11 mammary cells (C-HC11, Wnt1-HC11, Wnt5a-HC11)
The experiment in a line: ErbB1 immunoprecipitation and phosphotyrosine immunoblot in HC11 cells. As to conditions: HC11 cells, 100 ng/ml EGF for 10 minutes. It is filed as cell-based. The method, then:
ErbB1 is transactivated by many classes of membrane proteins (Carpenter, 1999; Gschwind et al., 2001). However, Wnt/VFz-mediated activation of ErbB1 has not been reported previously. Since ErbB1 tyrosine phosphorylation is an essential step in ErbB1 activation, we examined whether Wnt can activate ErbB1, by immunoprecipitating the receptor form Wnt/HC11 cells and performing a Westem analysis with phosphotyrosine specific antiserum. For these experiments HC11 cells were grown over night in medium without EGF. As a control for ErbB1 activation, C-HC 11 and Wnt-HC11 cells were treated for 10 minutes with 100 ng/ml EGF. An ErbB1 selective kinase inhibitor PKI166 (Traxler et al., 2001) was also used in some experiments. For this, the cells were pretreated 1 hr with 5 microM PKI 166, or left untreated, before preparing WCLs, essentially as described in Example 1.
ErbB1 was immunoprecipitated from 500 micrograms WCL and immunoblotted with a phosphotyrosine specific antibody (anti-phosphotyrosine AG10, Upstate Biotechnology) essentially as described previously (Lane et al., 2000). Membranes were stripped by placing them in 2% SDS, 62.5 mM Tris pH 6.8, 100 mM beta-mercaptoethanol at 60° C. for 30 min. Stripped membranes were reprobed for ErbB1 using a commercially available antibody (antibody 1005,Santa Cruz Biotechnology). […]

A further assay has as its system cyclin D1. The assay can be described thus: Cyclin D1 immunoblot in HC11 cells. The settings on record: control (C-HC11) cells treated 6 hr. It is filed as cell-based, mouse. The method, then: Briefly, WCL was prepared from HC11, Wnt1- and Wnt5a-expressing HC11 cells and 50 μg immunoblotted essentially as described above using commercially available antibodies against cyclin D1 (NovaCastra) or cyclin D2 (SantaCruz). Both Wnt1- and Wnt5a-HC11 cells express higher levels of cyclin D1, in comparison to HC11 cells. In addition, Wnt1-HC11 cells but not C- or Wnt5a-HC11 cells express cyclin D2.
C-HC11 cells were also treated 6 hrs with CM from Wnt-HC11 cells. WCL were prepared and 50 μg was immunoblotted for Cyclin D1 or Cyclin D2. Similar to the results with the Wnt-HC11 cell lines, both Wnts (CM) stimulated Cyclin D1 expression, while only Wnt1 enhanced cyclin D2 levels.
To assess the contribution of Wnt-transactivated ErbB1 on cyclin D1 and D2 expression, C- and Wnt-HC11 cells were treated 6 hr with PKI166 or CGS27023A or EGF. […] In contrast, the ErbB1 inhibitor had no effect on cyclin D2 levels. […] Thus, cyclin D1 and cyclin D2 are differentially controlled. Both Wnt1 and Wnt5a transactivate ErbB1, which results in increased expression of cyclin D1; in contrast cyclinD2 is only elevated in Wnt1 expressing cells and this is independent of ErbB1 activity.

B1: sFRP1: secreted Frizzled-related protein-1, binds Wnt preventing it from binding Fz; used as CM from sFRP1-producing HEK293 cells (protein, UniProt Q8N474 32-314, looked up)
Secreted frizzled-related …: SEYDYVSFQSDIGPYQSGRFYTKPPQCVDIPADLRLCHNVGYKKMVLPNLLEHETMAEVKQQASSWVPLLNKNCHAGTQVFLCSLFAPVCLDRPIYPCRWLCEAVRDSCEPVMQFFGFYWPEMLKCDKFPEGDVCIAMTPPNATEASKPQGTTVCPPCDNELKSEAIIEHLCASEFALRMKIKEVKKENGDKKIVPKKKKPLKLGPIKKKDLKKLVLYLKNGADCPCHQLDNLSHHFLIMGRKVKSQYLLTAIHKWDKKNKEFKNFMKKMKNHECPTFQSVFK
On to B1, for which the “Wnt1 and Wnt5a CM-induced increase of phospho-ERK1/2 levels” value in the assay with ERK1/2 (C-HC11, CM from sFRP1-producing 293 cells premixed 1:1 with Wnt-containing CM, 10 min) is listed as “prevented”.

B2: EGF: an ErbB1 activator, used as control for ErbB1 activation (protein, UniProt P01133 23-1207, looked up)
Pro-epidermal growth factor: PQHWSCPEGTLAGNGNSTCVGPAPFLIFSHGNSIFRIDTEGTNYEQLVVDAGVSVIMDFHYNEKRIYWVDLERQLLQRVFLNGSRQERVCNIEKNVSGMAINWINEEVIWSNQQEGIITVTDMKGNNSHILLSALKYPANVAVDPVERFIFWSSEVAGSLYRADLDGVGVKALLETSEKITAVSLDVLDKRLFWIQYNREGSNSLICSCDYDGGSVHISKHPTQHNLFAMSLFGDRIFYSTWKMKTIWIANKHTGKDMVRINLHSSFVPLGELKVVHPLAQPKAEDDTWEPEQKLCKLRKGNCSSTVCGQDLQSHLCMCAEGYALSRDRKYCEDVNECAFWNHGCTLGCKNTPGSYYCTCPVGFVLLPDGKRCHQLVSCPRNVSECSHDCVLTSEGPLCFCPEGSVLERDGKTCSGCSSPDNGGCSQLCVPLSPVSWECDCFPGYDLQLDEKSCAASGPQPFLLFANSQDIRHMHFDGTDYGTLLSQQMGMVYALDHDPVENKIYFAHTALKWIERANMDGSQRERLIEEGVDVPEGLAVDWIGRRFYWTDRGKSLIGRSDLNGKRSKIITKENISQPRGIAVHPMAKRLFWTDTGINPRIESSSLQGLGRLVIASSDLIWPSGITIDFLTDKLYWCDAKQSVIEMANLDGSKRRRLTQNDVGHPFAVAVFEDYVWFSDWAMPSVMRVNKRTGKDRVRLQGSMLKPSSLVVVHPLAKPGADPCLYQNGGCEHICKKRLGTAWCSCREGFMKASDGKTCLALDGHQLLAGGEVDLKNQVTPLDILSKTRVSEDNITESQHMLVAEIMVSDQDDCAPVGCSMYARCISEGEDATCQCLKGFAGDGKLCSDIDECEMGVPVCPPASSKCINTEGGYVCRCSEGYQGDGIHCLDIDECQLGEHSCGENASCTNTEGGYTCMCAGRLSEPGLICPDSTPPPHLREDDHHYSVRNSDSECPLSHDGYCLHDGVCMYIEALDKYACNCVVGYIGERCQYRDLKWWELRHAGHGQQQKVIVVAVCVVVLVMLLLLSLWGAHYYRTQKLLSKNPKNPYEESSRDVRSRRPADTEDGMSSCPQPWFVVIKEHQDLKNGGQPVAGEDGQAADGSMQPTSWRQEPQLCGMGTEQGCWIPVSSDKGSCPQVMERSFHMPSYGTQTLEGGVEKPHSLLSANPLWQQRALDPPHQMELTQ
modifications: Pro-epidermal growth factor
As to B2, the ErbB1 phosphorylation entry in the assay with ErbB1 was “strong increase”. Moreover, in the assay with ERK1/2 (C-HC11 cells, EGF 10 minutes in the presence of sFRP1), the ERK1/2 phosphorylation entry is recorded as “able to induce”. Moreover, the “cyclin D1 expression” value in the assay with cyclin D1 is listed as “stimulate”.
